The numbers were not newly measured in publication PMC5257249, which cites them from elsewhere.

Data set [1] concerns the target MMOH (Methylococcus capsulatus) (UniProt P22869). In words: fluorescence anisotropy. Background: In fluorescence polarisation assays a small probe gives low polarisation when free and higher when bound to something large.
For data set [2] the target is unchanged. Kind of data set: fluorescence anisotropy. The source holds these as a separate data set.

Like-named read-outs stand apart in the source and are kept apart here.

Sequence of UniProt P22869 (P22869 whole entry, chain 1 of 3): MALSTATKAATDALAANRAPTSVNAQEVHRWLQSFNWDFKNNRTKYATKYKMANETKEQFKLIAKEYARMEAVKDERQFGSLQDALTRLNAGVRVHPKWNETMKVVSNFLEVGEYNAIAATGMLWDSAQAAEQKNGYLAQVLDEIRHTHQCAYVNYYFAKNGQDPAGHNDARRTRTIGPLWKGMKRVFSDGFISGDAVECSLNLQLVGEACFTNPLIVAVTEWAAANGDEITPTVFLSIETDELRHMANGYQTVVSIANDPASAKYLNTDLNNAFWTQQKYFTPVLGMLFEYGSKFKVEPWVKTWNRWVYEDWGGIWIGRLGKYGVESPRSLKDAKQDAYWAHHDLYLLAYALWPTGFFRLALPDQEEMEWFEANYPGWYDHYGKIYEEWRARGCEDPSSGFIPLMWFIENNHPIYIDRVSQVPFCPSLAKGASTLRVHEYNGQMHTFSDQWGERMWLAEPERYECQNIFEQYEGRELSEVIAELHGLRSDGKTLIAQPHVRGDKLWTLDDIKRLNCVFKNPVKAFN
Sequence of UniProt P22869 (P18798 2-389, chain 2 of 3, further chain): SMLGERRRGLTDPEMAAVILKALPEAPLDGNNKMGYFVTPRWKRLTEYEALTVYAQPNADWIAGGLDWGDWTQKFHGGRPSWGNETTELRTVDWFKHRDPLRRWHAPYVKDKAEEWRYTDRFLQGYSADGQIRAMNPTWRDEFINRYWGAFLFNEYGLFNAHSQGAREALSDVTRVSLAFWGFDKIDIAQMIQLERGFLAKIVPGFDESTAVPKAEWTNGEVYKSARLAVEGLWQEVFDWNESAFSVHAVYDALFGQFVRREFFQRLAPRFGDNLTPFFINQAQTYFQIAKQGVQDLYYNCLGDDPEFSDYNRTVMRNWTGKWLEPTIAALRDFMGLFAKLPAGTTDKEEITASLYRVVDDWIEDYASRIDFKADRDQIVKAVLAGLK
Sequence of UniProt P22869 (P11987 2-170, chain 3 of 3, further chain): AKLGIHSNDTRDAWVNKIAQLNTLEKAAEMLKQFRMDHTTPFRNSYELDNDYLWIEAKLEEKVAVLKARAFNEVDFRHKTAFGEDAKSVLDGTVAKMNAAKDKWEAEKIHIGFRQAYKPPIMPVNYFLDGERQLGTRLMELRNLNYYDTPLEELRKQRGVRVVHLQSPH

What is called Kd is the free concentration of one partner at which half of the binding sites on the other are occupied at equilibrium, for simple one-to-one binding. For the substance MMOB (from UniProt P18797), the results for the dissociation constant Kd in data set [1] and in data set [2] were 170 nM and 550 nM, respectively.
